Laboratory results taken from article PMC4405178 (Biochemistry, 2015).

Key:
Assay in all cases: flow cytometry on cells
[1] = biological target: T1, full-length Ste2p H94Y (Saccharomyces cerevisiae, UniProt D6VTK4 1-431, H94Y)
T1 sequence (looked up): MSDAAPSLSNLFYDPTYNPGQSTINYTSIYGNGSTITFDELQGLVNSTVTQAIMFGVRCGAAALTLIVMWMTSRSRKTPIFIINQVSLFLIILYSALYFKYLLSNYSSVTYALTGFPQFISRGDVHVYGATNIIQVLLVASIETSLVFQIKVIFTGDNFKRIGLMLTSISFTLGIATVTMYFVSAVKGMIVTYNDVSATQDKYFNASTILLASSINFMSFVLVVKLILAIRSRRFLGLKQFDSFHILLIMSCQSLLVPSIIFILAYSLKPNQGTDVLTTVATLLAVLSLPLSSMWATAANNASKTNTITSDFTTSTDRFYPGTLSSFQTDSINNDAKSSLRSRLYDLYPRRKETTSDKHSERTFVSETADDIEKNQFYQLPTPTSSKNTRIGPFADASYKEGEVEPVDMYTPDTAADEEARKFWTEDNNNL

[2] = biological target: T2, C-terminally truncated Ste2p H94Y (Saccharomyces cerevisiae, UniProt D6VTK4 1-303, H94Y)
T2 sequence (looked up): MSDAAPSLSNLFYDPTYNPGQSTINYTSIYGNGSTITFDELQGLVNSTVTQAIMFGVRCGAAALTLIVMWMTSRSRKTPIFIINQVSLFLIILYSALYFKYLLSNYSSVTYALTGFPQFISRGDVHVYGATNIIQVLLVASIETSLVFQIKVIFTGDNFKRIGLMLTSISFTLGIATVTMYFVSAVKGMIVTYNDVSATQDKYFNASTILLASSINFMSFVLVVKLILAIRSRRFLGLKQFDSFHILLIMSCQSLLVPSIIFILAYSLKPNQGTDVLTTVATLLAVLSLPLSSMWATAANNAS

[3] = biological target: T3, C-terminally truncated Ste2p F38Y (Saccharomyces cerevisiae, UniProt D6VTK4 1-303, F38Y)
T3 sequence (looked up): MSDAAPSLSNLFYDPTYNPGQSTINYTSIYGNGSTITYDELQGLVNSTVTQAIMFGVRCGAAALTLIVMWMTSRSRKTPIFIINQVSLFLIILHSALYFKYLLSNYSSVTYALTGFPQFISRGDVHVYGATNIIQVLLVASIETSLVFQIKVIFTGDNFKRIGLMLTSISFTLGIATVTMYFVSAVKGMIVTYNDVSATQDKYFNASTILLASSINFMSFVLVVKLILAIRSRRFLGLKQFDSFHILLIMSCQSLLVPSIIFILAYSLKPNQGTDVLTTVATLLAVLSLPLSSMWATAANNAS

[4] = biological target: T4, C-terminally truncated Ste2p V49D (Saccharomyces cerevisiae, UniProt D6VTK4 1-303, V49D)
T4 sequence (looked up): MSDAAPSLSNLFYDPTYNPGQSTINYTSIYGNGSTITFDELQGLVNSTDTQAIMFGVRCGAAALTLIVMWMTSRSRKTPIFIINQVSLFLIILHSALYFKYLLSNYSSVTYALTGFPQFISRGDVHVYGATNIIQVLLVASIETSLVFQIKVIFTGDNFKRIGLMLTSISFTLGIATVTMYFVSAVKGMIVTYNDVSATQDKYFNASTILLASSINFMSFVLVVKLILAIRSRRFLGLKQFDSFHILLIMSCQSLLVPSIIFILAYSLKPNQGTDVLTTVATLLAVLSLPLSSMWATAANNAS

[5] = biological target: T5, C-terminally truncated wild-type Ste2p (Saccharomyces cerevisiae, UniProt D6VTK4 1-303)
T5 sequence (looked up): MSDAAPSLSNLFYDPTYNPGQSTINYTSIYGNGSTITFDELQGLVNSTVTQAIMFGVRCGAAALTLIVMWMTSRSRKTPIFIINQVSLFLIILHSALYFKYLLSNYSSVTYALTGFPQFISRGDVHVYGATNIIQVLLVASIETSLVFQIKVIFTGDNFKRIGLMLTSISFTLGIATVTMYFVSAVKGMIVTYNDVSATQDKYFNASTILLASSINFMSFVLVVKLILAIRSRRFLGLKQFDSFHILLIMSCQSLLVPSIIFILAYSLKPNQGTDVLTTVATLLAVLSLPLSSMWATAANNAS

[6] = biological target: T6, full-length wild-type Ste2p (Saccharomyces cerevisiae, UniProt D6VTK4 1-431)
T6 sequence (looked up): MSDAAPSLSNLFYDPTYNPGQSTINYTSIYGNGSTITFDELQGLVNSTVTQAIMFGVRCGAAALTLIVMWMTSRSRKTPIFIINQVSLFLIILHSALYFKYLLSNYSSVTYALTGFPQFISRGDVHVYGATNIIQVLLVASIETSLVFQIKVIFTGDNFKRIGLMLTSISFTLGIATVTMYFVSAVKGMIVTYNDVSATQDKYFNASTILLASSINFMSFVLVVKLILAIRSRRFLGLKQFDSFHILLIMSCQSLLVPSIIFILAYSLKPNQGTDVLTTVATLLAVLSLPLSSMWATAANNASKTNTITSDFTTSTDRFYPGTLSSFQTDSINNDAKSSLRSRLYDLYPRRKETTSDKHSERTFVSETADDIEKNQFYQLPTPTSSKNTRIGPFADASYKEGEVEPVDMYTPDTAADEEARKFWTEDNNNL

Kd [1]: 5.2 ± 2.1 nM | Kd [2]: 47 ± 8.1 nM | Kd [3]: 59 ± 11 nM | Kd [4]: 23 ± 3.3 nM | Kd [5]: 19 ± 3.8 nM | Kd [6]: 7.3 ± 0.9 nM
B1: [K^7(NBD),Nle^12] α-factor (peptide)
chain: WHWLQLKPGQPMY
modifications: NBD (7-nitrobenz-2-oxa-1,3-diazol-4-yl) conjugated to the lysine at position 7; norleucine at position 12 in place of methionine
